In patent US6294648A, “Protein having proteinase inhibitor activity” (Bayer Corporation, priority 1999, dated 2001):
Entries after “also recorded” stand apart in the source; their conditions may differ. Like-named read-outs stand apart in the source and are kept apart here.

How the values were obtained:
[1] = biological target: T1, trypsin (Bos taurus, UniProt P00760); conditions: cited from earlier work
T1 construct: gene PRSS1
T1 sequence (P00760 24-246): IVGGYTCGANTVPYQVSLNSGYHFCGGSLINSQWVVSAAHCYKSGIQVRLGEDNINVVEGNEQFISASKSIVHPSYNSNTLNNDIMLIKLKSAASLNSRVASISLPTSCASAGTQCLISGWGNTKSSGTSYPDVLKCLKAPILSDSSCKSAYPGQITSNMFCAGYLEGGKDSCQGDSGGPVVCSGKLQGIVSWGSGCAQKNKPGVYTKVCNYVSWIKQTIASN

[2] = biological target: T2, leukocyte elastase (Homo sapiens, UniProt P08246); conditions: cited from earlier work
T2 sequence (P08246 30-267): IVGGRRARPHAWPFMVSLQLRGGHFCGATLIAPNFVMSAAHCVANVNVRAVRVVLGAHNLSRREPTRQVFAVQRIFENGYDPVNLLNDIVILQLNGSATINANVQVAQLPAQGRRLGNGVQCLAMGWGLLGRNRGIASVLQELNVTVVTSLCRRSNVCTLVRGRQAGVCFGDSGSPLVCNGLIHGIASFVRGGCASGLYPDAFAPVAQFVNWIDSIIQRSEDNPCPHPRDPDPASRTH

[3] = system: chymotrypsin; conditions: cited from earlier work; for Ki: read-out: Ki, chymotrypsin
[4] = biological target: plasma kallikrein (Homo sapiens, UniProt P03952); conditions: cited from earlier work
[5] = system: platelets; conditions: cited from earlier work
[6] = biological target: T3, cathepsin G (Homo sapiens, UniProt P08311); conditions: cited from earlier work
T3 sequence (P08311 21-255): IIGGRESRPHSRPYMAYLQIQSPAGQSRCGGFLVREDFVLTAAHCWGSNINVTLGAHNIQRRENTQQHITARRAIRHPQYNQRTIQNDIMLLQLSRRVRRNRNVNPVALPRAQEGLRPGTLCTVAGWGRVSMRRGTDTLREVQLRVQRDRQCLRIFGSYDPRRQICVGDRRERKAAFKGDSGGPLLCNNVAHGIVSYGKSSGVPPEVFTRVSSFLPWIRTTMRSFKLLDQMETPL

[7] = system: neutrophil-induced ECM solubilization; conditions: cited from earlier work
[8] = biological target: T4, proteinase 3 (Homo sapiens, UniProt P24158); conditions: cited from earlier work
T4 sequence (P24158 28-256): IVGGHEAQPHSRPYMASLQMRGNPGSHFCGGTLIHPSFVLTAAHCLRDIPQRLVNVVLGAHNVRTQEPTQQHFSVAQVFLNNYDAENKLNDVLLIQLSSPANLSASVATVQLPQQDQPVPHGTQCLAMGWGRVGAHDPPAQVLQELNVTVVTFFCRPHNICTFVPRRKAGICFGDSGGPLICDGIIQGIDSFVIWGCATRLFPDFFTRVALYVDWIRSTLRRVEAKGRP

[9] = biological target: T5, human neutrophil proteinase 3 (Homo sapiens, UniProt P24158); experiment: Determination of equilibrium dissociation constants, proteinase 3; format: biochemical
T5 construct: purchased Athens Research and Technology, Inc. (Athens, Ga.)
T5 sequence (P24158 28-256): T4 sequence (P24158 28-256)
Procedure: (§1) The BTL.009 concentration was determined by amino acid analysis. The concentration of human neutrophil elastase, cathepsin G, and proteinase 3 were based on the manufacturer's specifications. […] Hydrolysis of AMC-conjugated peptides was monitored on a Hitachi model F4500 fluorometer (excitation=370 nm, emission=432 nm) over the first 2 minutes of the reaction. Ki* values were determined from plots of fractional rate versus inhibitor concentration, which were fit by nonlinear regression analysis (Enzifitter™ by Bio soft, Cambridge UK) as described (44). Ki values were obtained by correction for the effect of substrate as described (44).

[10] = biological target: T6, human neutrophil elastase (Homo sapiens, UniProt P08246); experiment: Determination of equilibrium dissociation constants, neutrophil elastase; format: biochemical
T6 construct: purchased Athens Research and Technology, Inc. (Athens, Ga.)
T6 sequence (P08246 30-267): T2 sequence (P08246 30-267)
Procedure: as §1

[11] = system: trypsin; experiment: Inhibitory activity of BTL.009 towards trypsin / trypsin-like proteinases; format: biochemical
[12] = biological target: T7, human neutrophil cathepsin G (Homo sapiens, UniProt P08311); experiment: Determination of equilibrium dissociation constants, cathepsin G; format: biochemical
T7 construct: purchased Athens Research and Technology, Inc. (Athens, Ga.)
T7 sequence (P08311 21-255): T3 sequence (P08311 21-255)
Procedure: as §1

[13] = biological target: T8, Bovine chymotrypsin (Bos taurus, UniProt P00766); experiment: Chymotrypsin assay to monitor protein folding; format: biochemical
T8 construct: purchased Sigma (St. Louis, Mo.)
Procedure: To identify the properly folded form from reverse phase purification, the inhibition of chymotrypsin was measured. Chymotrypsin (20 nM) was incubated with refolded BTL.009 reverse phase fractions (0.04 absorbance units at 280 nm) in 100 μl of 50 MM Hepes (pH 7.5), 0.15 M NaCl, 2.0 mM CaCl2, and 0.01% Triton X-100 (buffer A) at 37° C. After 30 minutes, Suc-AAPF-pNa (100 μM final concentration) was added, after which the residual enzymatic formation of pNa was monitored at 410 nm.

[14] = biological target: thrombin (Homo sapiens, UniProt P00734); conditions: cited from earlier work
[15] = read-out: Ki, leukocyte elastase

Chain of plasma kallikrein (P03952 20-638, species assumed): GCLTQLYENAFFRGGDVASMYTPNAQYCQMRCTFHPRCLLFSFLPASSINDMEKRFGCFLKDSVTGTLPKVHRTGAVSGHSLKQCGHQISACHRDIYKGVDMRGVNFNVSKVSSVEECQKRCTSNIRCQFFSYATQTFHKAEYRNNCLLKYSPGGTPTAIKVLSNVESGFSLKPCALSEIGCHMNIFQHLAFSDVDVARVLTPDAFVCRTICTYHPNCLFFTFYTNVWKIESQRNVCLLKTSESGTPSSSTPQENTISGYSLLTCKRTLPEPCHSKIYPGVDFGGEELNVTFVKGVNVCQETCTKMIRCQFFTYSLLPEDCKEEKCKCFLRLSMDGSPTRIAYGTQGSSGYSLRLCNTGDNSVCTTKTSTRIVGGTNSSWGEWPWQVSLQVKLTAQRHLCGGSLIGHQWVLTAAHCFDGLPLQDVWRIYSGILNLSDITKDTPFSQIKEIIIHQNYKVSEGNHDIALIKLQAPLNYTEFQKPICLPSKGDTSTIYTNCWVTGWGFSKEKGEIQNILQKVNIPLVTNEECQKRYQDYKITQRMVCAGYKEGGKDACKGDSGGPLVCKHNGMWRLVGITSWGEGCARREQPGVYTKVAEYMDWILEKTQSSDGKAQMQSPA

hPSTI: a member of the Kazal serine proteinase family (DSLGREAKCYNELNGCTKIYDPVCGTDGNTYPNECVLCFENRKRQTSILIQKSGPC; UniProt P00995 24-79, looked up)
inhibition of trypsin, in words [1]: potent inhibitor | inhibition of leukocyte elastase, in words [2]: completely inactive | inhibition of chymotrypsin, in words [3]: completely inactive

Tannin
inhibition of leukocyte elastase, in words [2]: specifically inhibits leukocyte elastase in an irreversible manner

APP KD variant (T11D, P13H, M17A, 118H, S19P and F34Y): phage display / consensus mutant APP KD differing at 6 key residues; plasma kallikrein inhibitor
Ki [4]: ~0.015 nM | increase in binding affinity to plasma kallikrein compared to wild-type APP KD [4]: more than 10,000 fold

aprotinin
Ki [1]: 0.02 nM | inhibition of leukocyte elastase, in words [2]: does not inhibit | Ki [3]: 1.3 nM

Thrombospondin 1: inactivates cathepsin G by binding near the enzyme's active site
cathepsin G-mediated platelet aggregation [5]: blocked | inhibition of cathepsin G, in words [6]: inactivates cathepsin G

double mutant hPSTI variant: hPSTI with P1 lysine to leucine and P'1 isoleucine to glutamate (DSLGREAKCYNELNGCTLEYDPVCGTDGNTYPNECVLCFENRKRQTSILIQKSGPC; UniProt P00995 24-79, looked up, variant K18L I19E)
Ki [2, 15]: 0.037 nM | Ki [3]: 0.024 nM

Alpha 1-proteinase inhibitor: a serpin family serine proteinase inhibitor; major serum inhibitor of elastase and cathepsin G
inhibition of neutrophil-induced ECM solubilization [7]: completely or nearly completely inhibit | inhibition of proteinase 3, in words [8]: inhibit | inhibition of cathepsin G, in words [6]: potent inhibitor | inhibition of cathepsin G, in words ([6]; listed as Alpha-1-proteinase): inhibit

BTL.009: synthetic, refolded peptide corresponding to the EST-derived human Kunitz domain KQDVCEMPKETGPCLAYFLHWWYDKKDNTCSMFVYGGCQGNNNNFQSKANCLNTC (SEQ ID NO:1)
inhibition of proteinase 3, in words [9]: moderate inhibitor | inhibition of leukocyte elastase, in words [10]: strong inhibitor; also recorded: elastase inhibitor | inhibitory activity towards trypsin compared with neutrophil neutral serine proteinase [11]: significantly greater inhibitory activity towards a neutral serine proteinase secreted by neutrophils than towards trypsin | expected activity towards trypsin-like proteinases ([11]; expected, not tested): little activity towards all trypsin-like proteinases | inhibition of cathepsin G, in words [12]: weak inhibitor | preference for chymotrypsin-like over trypsin-like proteases [13]: inhibit preferentially chymotrypsin-like proteases over trypsin-like proteases

alpha 1-proteinase inhibitor [Arg358]: alpha 1-proteinase inhibitor P1 variant
inhibition of trypsin-like molecules such as thrombin, in words [14]: potent inhibitor | inhibition of leukocyte elastase, in words [2]: not of leukocyte elastase

alpha-2-macroglobulin: member of the serpin proteinase inhibitor family (as stated)
inhibition of leukocyte elastase, in words [2]: inhibit | inhibition of proteinase 3, in words [8]: inhibit | inhibition of cathepsin G, in words [6]: inhibit

TFPI: Tissue factor pathway inhibitor, another member of the Kunitz family
Ki [2, 15]: 400 nM | Ki [6]: 100 to 200 nM | Ki [3]: 0.75 nM

single mutant hPSTI variant: hPSTI with P1 residue lysine substituted with leucine (DSLGREAKCYNELNGCTLIYDPVCGTDGNTYPNECVLCFENRKRQTSILIQKSGPC; UniProt P00995 24-79, looked up, variant K18L)
inhibition of trypsin, in words [1]: inactive | Ki [2, 15]: 0.025 nM | Ki [3]: 8 nM

elafin: member of the mucous proteinase inhibitor family (AQEPVKGPVSTKPGSCPIILIRCAMLNPPNRCLKDTDCPGIKKCCEGSCGMACFVPQ; Elafin; UniProt P19957 61-117, looked up)
Ki ([2]; read-out: Ki, elastase): 0.6 nM | inhibition of proteinase 3, in words [8]: not proteinase 3 | inhibition of cathepsin G, in words [6]: not
